B1: zntAPro (dsDNA)
DNA 1: CTTGACTCTGGAGTCGACTCCAGAGTGTATCCTC
DNA 2: GAGGATACACTCTGGAGTCGACTCCAGAGTCAAG
B2: znuAPro (dsDNA)
DNA 1: TAGAATGTTATAATATCACATTTCACACATTCA
DNA 2: TGAATGTGTGAAATGTGATATTATAACATTCTA

Columns and labels:
ZntR [1] = molecular target: T1, ZntR (Salmonella enterica sv. Typhimurium …, UniProt A0A0H3NSQ7 1-141); test: fluorescence anisotropy; Co(II)-ZntR, 5 uM CoCl2; 10 nM probe, 60 mM NaCl, 240 mM KCl, 10 mM HEPES pH 7.0, anaerobic; temperature not stated; details: protein: recombinant; chain copies: 2; label: 5' HEX on strand 1; blunt
ZntR [2] = molecular target: T1, ZntR; test: fluorescence anisotropy; Zn(II)-ZntR, 1.2 eq ZnCl2; 10 nM probe, 60 mM NaCl, 240 mM KCl, 10 mM HEPES pH 7.0, anaerobic; temperature not stated; details: protein: recombinant; chain copies: 2; label: 5' HEX on strand 1; blunt
ZntR [3] = molecular target: T1, ZntR; test: fluorescence anisotropy; apo, 5 mM EDTA; 10 nM probe, 60 mM NaCl, 240 mM KCl, 10 mM HEPES pH 7.0, anaerobic; temperature not stated; details: protein: recombinant; chain copies: 2; label: 5' HEX on strand 1; blunt
Zur [4] = molecular target: T2, Zur (Salmonella enterica sv. Typhimurium …, UniProt A0A0H3NVF0 1-171); test: fluorescence anisotropy; Zn(II)4-Zur, 1 uM ZnCl2; 10 nM probe, 60 mM NaCl, 240 mM KCl, 10 mM HEPES pH 7.0, anaerobic; temperature not stated; details: protein: recombinant; chain copies: 4; label: 5' HEX on strand 1; blunt
Zur [5] = molecular target: T2, Zur; test: fluorescence anisotropy; Co(II)-Zur, 1 uM CoCl2; 10 nM probe, 60 mM NaCl, 240 mM KCl, 10 mM HEPES pH 7.0, anaerobic; temperature not stated; details: protein: recombinant; chain copies: 4; label: 5' HEX on strand 1; blunt
Zur [6] = molecular target: T2, Zur; test: fluorescence anisotropy; Zn(II)2-Zur (tightest two exchangeable sites filled); 10 nM probe, 60 mM NaCl, 240 mM KCl, 10 mM HEPES pH 7.0, anaerobic; temperature not stated; details: protein: recombinant; chain copies: 4; label: 5' HEX on strand 1; blunt

Binder	Kd (ZntR [1])	Kd (ZntR [2])	Kd (ZntR [3])	Kd (Zur [4])	Kd (Zur [5])	Kd (Zur [6])
B1	340 nM	650 nM	1100 nM	–	–	–
B2	–	–	–	54 nM	31 nM	41 nM
